Assay [1] relates to CD8+ T-cells of healthy HLA-A*02 donors. The experiment in a line: In vitro immunogenicity: T-cell priming with aAPCs loaded with peptide/MHC and anti-CD28, multimer staining. It is filed as cell-based, human. Particulars: for Wells positive [%]: HLA-A*02 restricted peptides, among evaluable wells, Table 10B; for donors: percentage of positive donors; for donors / wells: in vitro immunogenicity, Table 10A; for wells: percentage of positive wells. The source says:
In order to obtain information regarding the immunogenicity of the TUMAPs of the present invention, the inventors performed investigations using an in vitro T-cell priming assay based on repeated stimulations of CD8+ T-cells with artificial antigen presenting cells (aAPCs) loaded with peptide/MHC complexes and anti-CD28 antibody.
In order to perform in vitro stimulations by artificial antigen presenting cells loaded with peptide-MHC complex (pMHC) and anti-CD28 antibody, the inventors first isolated CD8+ T-cells from fresh HLA-A*02 leukapheresis products via positive selection using CD8 microbeads (Miltenyi Biotec, Bergisch-Gladbach, Germany) of healthy donors obtained from the University clinics Mannheim, Germany, after informed consent.
PBMCs and isolated CD8+ lymphocytes were incubated in T-cell medium (TCM) until use consisting of RPMI-Glutamax (Invitrogen, Karlsruhe, Germany) supplemented with 10% heat inactivated human AB serum (PAN-Biotech, Aidenbach, Germany), 100 U/ml Penicillin/100 μg/ml Streptomycin (Cambrex, Cologne, Germany), 1 mM sodium pyruvate (CC Pro, Oberdorla, Germany), 20 μg/ml Gentamycin (Cambrex). 2.5 ng/ml IL-7 (PromoCell, Heidelberg, Germany) and 10 U/ml IL-2 (Novartis Pharma, Nürnberg, Germany) were also added to the TCM at this step.
Generation of pMHC/anti-CD28 coated beads, T-cell stimulations and readout was performed in a highly defined in vitro system using four different pMHC molecules per stimulation condition and 8 different pMHC molecules per readout condition.
The purified co-stimulatory mouse IgG2a anti human CD28 Ab 9.3 (Jung et al., 1987) was chemically biotinylated using Sulfo-N-hydroxysuccinimidobiotin as recommended by the manufacturer (Perbio, Bonn, Germany). Beads used were 5.6 μm diameter streptavidin coated polystyrene particles (Bangs Laboratories, Illinois, USA).
800.000 beads/200 μl were coated in 96-well plates in the presence of 4×12.5 ng different biotin-pMHC, washed and 600 ng biotin anti-CD28 were added subsequently in a volume of 200 μl. Stimulations were initiated in 96-well plates by co-incubating 1×10^6 CD8+ T-cells with 2×10^6 washed coated beads in 200 μl TCM supplemented with 5 ng/ml IL-12 (PromoCell) for 3 days at 37° C. Half of the medium was then exchanged by fresh TCM supplemented with 80 U/ml IL-2 and incubating was continued for 4 days at 37° C. This stimulation cycle was performed for a total of three times. For the pMHC multimer readout using 8 different pMHC molecules per condition, a two-dimensional combinatorial coding approach was used as previously described (Andersen et al., 2012) with minor modifications encompassing coupling to 5 different fluorochromes. Finally, multimeric analyses were performed by staining the cells with Live/dead near IR dye (Invitrogen, Karlsruhe, Germany), CD8-FITC antibody clone SK1 (BD, Heidelberg, Germany) and fluorescent pMHC multimers. For analysis, a BD LSRII SORP cytometer equipped with appropriate lasers and filters was used. Peptide specific cells were calculated as percentage of total CD8+ cells. Evaluation of multimeric analysis was done using the FlowJo software (Tree Star, Oregon, USA). In vitro priming of specific multimer+CD8+ lymphocytes was detected by comparing to negative control stimulations.

A further assay concerns the target HLA-A*02:01 (Homo sapiens, UniProt P04439, D140Y/D185E/D98H/E176V/E277Q/G131W/G231S/I119V/I121R/I166T/I218V/L300P/L318F/N151K/N90K/P208A/P217A/Q86G/Q94H/R138H/R169H/T345S). The experiment in a line: MHC binding assay (UV-ligand exchange, beta2m ELISA, peptide exchange yield). Conditions: binding to HLA-A*02:01, β2m ELISA. In outline: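 Peptide–MHC complexes formed by UV-ligand exchange, cleaving a UV-sensitive peptide so the test peptide can bind. Exchange yield measured by ELISA: complexes captured on streptavidin-coated wells, diluted 100-fold, detected with HRP anti-β2m (1 h, 37 °C) and TMB at 450 nm, against refolded HLA-A*02:01/MLA-001 standards (15-500 ng/ml).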
On the technique in general: In an ELISA, binding on a coated surface is turned into a signal by an enzyme label.

Consider “1 (ALIKQLFEA; listed as Homo sapiens) [compound 1]”, for which, in assay [1], the “Wells positive [%]” value was ““+” (<20% = +)”. Besides, in the assay with HLA-A*02:01, the “Peptide exchange (MHC class I binding score, peptide exchange yield)” value (from here on “Peptide exchange”) is ““+++” (≥50 = +++)”.

Regarding “2 (ALLPRYFFL; listed as Homo sapiens) [compound 2]”, the “Wells positive [%]” value in assay [1] is ““++++” (>=70% = ++++)”. For the same substance, the “Peptide exchange” value in the assay with HLA-A*02:01 is ““++” (≥20% = ++)”.

As for “7 (YLTRHLAVL; listed as Homo sapiens) [compound 7]”, the “Wells positive [%]” value in assay [1] is given as ““+” (<20% = +)”. For the same substance, the “Peptide exchange” value with HLA-A*02:01 is recorded as ““++” (≥20% = ++)”.

As for “9 (ILDDHLSRV; listed as Homo sapiens) [compound 9]”, the “Wells positive [%]” value in assay [1] is ““+” (<20% = +)”. Moreover, the “Peptide exchange” value in the assay with HLA-A*02:01 was ““++” (≥20% = ++)”.

With “10 (RMYNKIFAI; listed as Homo sapiens) [compound 10]”, the “Wells positive [%]” value in assay [1] is reported as ““++++” (>=70% = ++++)”. Moreover, in the assay with HLA-A*02:01, the “Peptide exchange” value is ““+++” (≥50 = +++)”.

Turning to “11 (YLFEKTFNM; listed as Homo sapiens) [compound 11]”, the “Wells positive [%]” value in assay [1] was ““+” (<20% = +)”. In addition, the “Peptide exchange” value with HLA-A*02:01 is given as ““+++” (≥50 = +++)”.

Turning to “12 (ALVQGILERV; listed as Homo sapiens) [compound 12]”, the “Wells positive [%]” value in assay [1] is listed as ““++++” (>=70% = ++++)”. Further, the “Peptide exchange” value with HLA-A*02:01 is recorded as ““+++” (≥50 = +++)”.

With “18 (FLSSLKGGLL; listed as Homo sapiens) [compound 18]”, the “Wells positive [%]” value in assay [1] is on record as ““+” (<20% = +)”. Also, the “Peptide exchange” value with HLA-A*02:01 is listed as ““+++” (≥50 = +++)”.

As to “21 (VLIDHRWVL; listed as Homo sapiens) [compound 21]”, the “Wells positive [%]” value in assay [1] is given as ““+” (<20% = +)”. In the assay with HLA-A*02:01, the “Peptide exchange” value was ““+++” (≥50 = +++)”.

As to “37 (GLFAGLGGAGA; listed as Homo sapiens) [compound 37]”, the “Wells positive [%]” value in assay [1] is given as ““+” (<20% = +)”. Besides, the “Peptide exchange” value with HLA-A*02:01 is ““+++” (≥50 = +++)”.

Consider “38 (SLAPTPVSA; listed as Homo sapiens) [compound 38]”, for which the “Wells positive [%]” value in assay [1] is on record as ““+” (<20% = +)”. Also, the “Peptide exchange” value with HLA-A*02:01 was ““++” (≥20% = ++)”.

As to “42 (SILDDSFKL; listed as Homo sapiens) [compound 42]”, the “Wells positive [%]” value in assay [1] is on record as ““+” (<20% = +)”. Besides, the “Peptide exchange” value with HLA-A*02:01 was ““++++” (≥75% = ++++)”.

Turning to “47 (KLYERCEVV; listed as Homo sapiens) [compound 47]”, in assay [1], the “Wells positive [%]” value is ““+” (<20% = +)”. Also, the “Peptide exchange” value in the assay with HLA-A*02:01 is listed as ““++” (≥20% = ++)”.

As to “59 (LLTDNVVKL; listed as Homo sapiens) [compound 59]”, in assay [1], the “Wells positive [%]” value was ““+” (<20% = +)”. Also, the “Peptide exchange” value in the assay with HLA-A*02:01 was ““+++” (≥50 = +++)”.

Regarding “64 (KTLGKLWRL; listed as Homo sapiens) [compound 64]”, the “Wells positive [%]” value in assay [1] is given as ““++++” (>=70% = ++++)”. For the same substance, in the assay with HLA-A*02:01, the “Peptide exchange” value is recorded as ““++” (≥20% = ++)”.

Consider “123 (KTLERSYLL; listed as Homo sapiens) [compound 123]”, for which, in assay [1], the “Wells positive [%]” value is ““+” (<20% = +)”. Also, in the assay with HLA-A*02:01, the “Peptide exchange” value is recorded as ““++” (≥20% = ++)”.

“168 (GLIRFPLMTI; listed as Homo sapiens) [compound 168]”: the “Peptide exchange” value with HLA-A*02:01 is ““+++” (≥50 = +++)”.

Consider “169 (YLAHFIEGL; listed as Homo sapiens) [compound 169]”, for which the “Peptide exchange” value with HLA-A*02:01 was ““+++” (≥50 = +++)”.

For the substance “170 (ALAGGITMV; listed as Homo sapiens) [compound 170]”, the “Peptide exchange” value with HLA-A*02:01 was ““+++” (≥50 = +++)”.

Take “171 (RLQETEGMVAV; listed as Homo sapiens) [compound 171]”: in the assay with HLA-A*02:01, the “Peptide exchange” value is ““++” (≥20% = ++)”.

As for “172 (LLLDTVTMQV; listed as Homo sapiens) [compound 172]”, the “Peptide exchange” value with HLA-A*02:01 was ““+++” (≥50 = +++)”.

With “173 (KLGDLMVLL; listed as Homo sapiens) [compound 173]”, the “Peptide exchange” value in the assay with HLA-A*02:01 was ““+++” (≥50 = +++)”.

For the substance “174 (ILLDDNMQIRL; listed as Homo sapiens) [compound 174]”, the “Peptide exchange” value with HLA-A*02:01 is ““++++” (≥75% = ++++)”.

In the case of “175 (TLLGGKEAQALGV; listed as Homo sapiens) [compound 175]”, the “Peptide exchange” value with HLA-A*02:01 is recorded as ““+++” (≥50 = +++)”.

Turning to “176 (RTLDKVLEV; listed as Homo sapiens) [compound 176]”, the “Peptide exchange” value with HLA-A*02:01 is reported as ““++” (≥20% = ++)”.

Consider “177 (ALLQGAIESV; listed as Homo sapiens) [compound 177]”, for which the “Peptide exchange” value with HLA-A*02:01 is given as ““+++” (≥50 = +++)”.

Turning to “178 (YLFREPATI; listed as Homo sapiens) [compound 178]”, in the assay with HLA-A*02:01, the “Peptide exchange” value is ““++” (≥20% = ++)”.

As to “179 (RLLSPLSSA; listed as Homo sapiens) [compound 179]”, the “Peptide exchange” value with HLA-A*02:01 was ““+++” (≥50 = +++)”.

Regarding “181 (NLFDLGGQYLRV; listed as Homo sapiens) [compound 181]”, the “Peptide exchange” value with HLA-A*02:01 is given as ““+++” (≥50 = +++)”.

On to “182 (SLNKWIFTV; listed as Homo sapiens) [compound 182]”, for which the “Peptide exchange” value with HLA-A*02:01 is ““++++” (≥75% = ++++)”.

“183 (TLQEVVTGV; listed as Homo sapiens) [compound 183]”: in the assay with HLA-A*02:01, the “Peptide exchange” value is ““+++” (≥50 = +++)”.

Take “184 (SLLDENNVSSYL; listed as Homo sapiens) [compound 184]”: the “Peptide exchange” value with HLA-A*02:01 is recorded as ““+++” (≥50 = +++)”.

Turning to “185 (VLYTGVVRV; listed as Homo sapiens) [compound 185]”, the “Peptide exchange” value with HLA-A*02:01 was ““+++” (≥50 = +++)”.

Turning to “186 (KMSEKILLL; listed as Homo sapiens) [compound 186]”, the “Peptide exchange” value with HLA-A*02:01 is on record as ““+++” (≥50 = +++)”.

“187 (GLHNVVYGI; listed as Homo sapiens) [compound 187]”: in the assay with HLA-A*02:01, the “Peptide exchange” value was ““+++” (≥50 = +++)”.

For “188 (FLVDGPRVQL; listed as Homo sapiens) [compound 188]”, in the assay with HLA-A*02:01, the “Peptide exchange” value is given as ““+++” (≥50 = +++)”.

As for “189 (AISEVIGKITA; listed as Homo sapiens) [compound 189]”, the “Peptide exchange” value with HLA-A*02:01 is reported as ““+++” (≥50 = +++)”.

For “190 (AMAEMVLQV; listed as Homo sapiens) [compound 190]”, the “Peptide exchange” value with HLA-A*02:01 is recorded as ““+++” (≥50 = +++)”.

As to “191 (QLFSEIHNL; listed as Homo sapiens) [compound 191]”, in the assay with HLA-A*02:01, the “Peptide exchange” value was ““++++” (≥75% = ++++)”.

Turning to “219 (FLDEKGRCV; listed as Homo sapiens) [compound 219]”, in assay [1], the donors result is “+++ (50%-69% = +++)” and the wells entry is on record as “++ (20%-49% = ++)”.

Turning to “220 (KMDPVAYRV; listed as Homo sapiens) [compound 220]”, in assay [1], the donors result is “++++ (>=70% = ++++)” and the wells entry is given as “+++ (50%-69% = +++)”.

The record behind these values is patent US11597752B2, “Peptides and combination of peptides and scaffolds thereof for use in immunotherapy against colorectal carcinoma (CRC) and other cancers” (priority 2015, dated 2023).
